Data: patent publication US20140178378A1

Biological target: IL-6/sIL-6R complex
Assay: cell-based or functional assay

Substance: wild type sgp130Fc (from UniProt P40189 23-619) (Fc fusion)
- IC50, inhibition of IL-6/sIL-6R-induced proliferation of BAF3/gp130 cells (MTS cell viability assay, 3 days): 800 ng/mL
